Experimental findings from patent publication US8147844 (Genentech, dated 2012) are described below.

In experiment [1] the target is T1, mpl-IgG (chimeric molecule comprising the entire extracellular domain of human mpl, amino acids 1-491, and … (human, UniProt P40238 26-491)).
T1 construct: range 1-491; Expressed in 293 cells; no cleavage site is stated; Used immobilized on Ultralink or NHS-superose, captured on ELISA plates, or soluble; also called soluble mpl-IgG; soluble human mpl-IgG; not shown: Fc region of a human IgG1 molecule
T1 sequence (looked up): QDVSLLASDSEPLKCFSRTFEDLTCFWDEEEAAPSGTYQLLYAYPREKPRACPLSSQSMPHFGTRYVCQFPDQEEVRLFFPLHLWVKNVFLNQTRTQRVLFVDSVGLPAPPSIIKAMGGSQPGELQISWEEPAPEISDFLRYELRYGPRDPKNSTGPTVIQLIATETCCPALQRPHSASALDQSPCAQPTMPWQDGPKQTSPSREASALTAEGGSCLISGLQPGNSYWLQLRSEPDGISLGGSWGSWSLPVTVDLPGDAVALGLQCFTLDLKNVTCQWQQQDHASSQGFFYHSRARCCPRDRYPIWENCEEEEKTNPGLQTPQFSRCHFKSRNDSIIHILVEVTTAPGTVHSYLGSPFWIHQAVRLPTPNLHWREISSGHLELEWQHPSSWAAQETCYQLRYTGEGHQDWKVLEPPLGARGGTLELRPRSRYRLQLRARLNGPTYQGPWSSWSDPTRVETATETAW
The experiment can be described thus: mpl receptor-based ELISA: mpl-IgG captured on an anti-human IgG (Fc) plate, bound TPO detected with biotinylated rabbit antibodies to TPO155.

Experiment [2] deals with T1, mpl-IgG (chimeric molecule comprising …). The experiment can be described thus: mpl receptor based ELISA (captured mpl-IgG). (In general: An ELISA detects its analyte on a solid surface through an enzyme-linked reagent.)

Where “and” joins values, the source holds several entries; their conditions need not be identical. Identical values can stand only once.

B1: TPO (Met^-1 1-153), refolded, produced in E. coli (ligand)
chain: MSPAPPACDLRVLSKLLRDSHVLHSRLSQCPEVHPLPTPVLLPAVDFSLGEWKTQMEETKAQDILGAVTLLLEGVMAARGQLGPTCLSSLLGQLSGQVRLLLGALQSLLGTQLPPQGRTTAHKDPNAIFLSFQHLLRGKVRFLMLVGGSTLCVR
modifications: non-glycosylated; disulfides between cysteines 1-4 and 2-3
notes: Encoded by plasmid pMP210-1
One may read the EC50 as the concentration giving half of the maximal effect. Low values mean a more potent agent, high ones a less potent agent. Turning to B1, the concentration for a half-maximal effect (EC50) in experiment [1] is 0.0019 µg/mL and 0.12 nM.

B2: TPO (1-155) with authentic N-terminus, generated by thrombin cleavage of T-H8MLF (ligand)
chain: SPAPPACDLRVLSKLLRDSHVLHSRLSQCPEVHPLPTPVLLPAVDFSLGEWKTQMEETKAQDILGAVTLLLEGVMAARGQLGPTCLSSLLGQLSGQVRLLLGALQSLLGTQLPPQGRTTAHKDPNAIFLSFQHLLRGKVRFLMLVGGSTLCVRRA
notes: Only very minor (<5%) internal cleavage occurred; also called cleaved variant (3)
As to B2, the EC50 in experiment [2] was 0.002 µg/mL to 0.004 µg/mL (2×) and 0.12 nM and 0.24 nM.
